Values of other authors as cited in publication PMC8329052.

Molecular target: SARS-CoV-2 spike RBD RBD (SARS-CoV-2) (UniProt P0DTC2)

Q: Which Kd does the source give for “SBP1 (ACE2 alpha1 helix 23-mer peptide) 21-43 (from UniProt Q9BYF1)” here?
A: The Kd was 47 nM.
